Source: the DeepSol protein solubility set

Assay: soluble on expression in E. coli; label from the status in PepcDB or PDB records

In the case of “MGSDKIHHHHHHMGTKKNFVIDTNVILHDYNCLKNFQENDIHLPLVVLEELDKFKKGNEQINFNAREFVRELDLLTSDELFSQGVSLGEGMGRLFVVPGNVDAPKVHESFPVKKPDHLILAAVEYLAAKYPKTPAILVTKDVNLRMKARSIGITSEDYITDKVSNVDIFEKSNEIFENVDPALIDRIYSSKEGIDLSEFDFKDVIHPNECFVLKSDRNSVLARYNPFTHSICRVTKGRNYGIEPRNAEQSFAFEILNDPNVKLVALTGKAGTGKTLLALAAALGKLTDYKQVLLARPVVALSNKDIGFLPGDAQEKVAPYMQPLFDNLNVIKRQFAANSTEVKRIEDMQKSEQLVIEALAFIRGRSLSEMYCIIDEAQNLTPNEIKTIITRAGEGTKMVFTGDIQQIDQPYLDSQSNGLVYMIDRMKDQNIFAHVNLVKGERSQLSELASNLL”, the “soluble on expression in E. coli” value was “not soluble”.

With “KAIYNRNLGYSDGAGAVLALKKKGHQNACKIAGCELWLKIIERYSREKSFYLVGGKPEVIEETIQKLRKDFPRINIVGYRDGYLKGNDDEVLIEDIAAKKPDVVFVAMGSPKQELLMERMQRVHPNAIYQGLGGSFDVYTGRVERAPEWWIRHNLEFAYRLIKQPSRIKRQIHLVRFLFRVLTNRI” the “soluble on expression in E. coli” value was “not soluble”.

In the case of “MGSDKIHHHHHHMDTDLLKTFLEVSRTRHFGKAAENLYLTRSAVSFRIKQLENILGLELFERLRNNIQPTPAGERMLGHAEAVLNAWERAKQDIILNQQHSAQLALSAGDNIWDAFLQGFLQPLHLGLEGVALRTDVLPATVMTRQLIERTLDIAITFDPPKLDGVILVKLAEVKLYLVSKQAGVKLTQTPTLPYIKVDWGTAFNITHAQDFTMLPLPVLHTSSARMALDFILNNGGCAFLPEALIKPYLDNGSLYVVDDAKCIHRHVYAAYWAENERLAYIEQAISILTTDKRTE”, the “soluble on expression in E. coli” value was “not soluble”.

For “AIANVWLLGRGELRRRHDDVLQLERAFLTDRTGLHFVNARSSEDLLALAESRRAEQQWPVLDAEWISPVGTDTCDDLVWQNLESTLDGRPDTFYSTAGFEAGNTLSGTGELAPGEAFLAYRFWRPVRVYAVQLRAFQADFHPGRPVYPFQVARVGVGCSLQAGMSLSYGADASAPGTSCNYRCFCTTEQQTLVFDDPMVGVYLVICLKGFPQQQLTDRLHYAAVSGIRVFGEPISSPALENELSCLISRGFILDGRDAARWLDLRSAQEHAAPMHIPEDEVI”, the “soluble on expression in E. coli” value was “soluble”.

In the case of “MTNNQTLDILLDVYAYNHAFRIAKALPNIPKTALYLLEMLKERRELNLAFLAEHAAENRTIEDQYHCSLWLNQSLEDEQIANYILDLEVKVKNGAIIDFVRSVSPILYRLFLRLITSEIPNFKAYIFDTKNDQYDTWHFQAMLESDHEVFKAYLSQKQSRNVTTKSLADMLTLTSLPQEIKDLVFLLRHFEKAVRNPLAHLIKPFDEEELHRTTHFSSQAFLENIITLATFSGVIYRREPFYFDDMNAIIKKELSLWRQSIV”, the “soluble on expression in E. coli” value was “not soluble”.

In the case of “MERRSVQKKELLSTPVVPIDIKAFDAGPILEAMGKTAFQARNLHRAAEIYLRMLEDDCAVILTLAGSLVSAGQGLIVHDLIRKGLVDVIVATGANIVDQDFFEALGHRHYQGDPRADDEALRRLWIDRIYDTYIDEEELRHTDYTVAEIADGLEPRPYSSREFIWQMGRYLAERGLGEKRIVRRAYEKGVPIFVTAFSDSSAGFGLVYHQVKRPEAHVTIDSVADFRELTEIKLKAGTTGLVMLGGGVPKNFAQDIVVAAEVLGHRVEMHKYAIQITVADERDGGLSGSTLSEAQSWGKVDARLSQMVFAEATLAFPLLASYVWHRAPARAKRRYAELFREKAPA”, the “soluble on expression in E. coli” value was “soluble”.

For “MRAVIPYKKAGAKSRLSPVLSLQEREEFVELMLNQVISSLKGAGIEQVDILSPSVYGLEEMTEARVLLDEKDLNEALNRYLKEAEEPVLIVMADLPLLSPEHIKEISSTEKDVCIVPGKGGGTNALFIKNPSKYRVKYYGSSFLTHCSIATDSGQDFEIYDSFMAGTDIDEPEDLVELLIHGKGAAKDYIESKFRLEVKKGRVGLVPL”, the “soluble on expression in E. coli” value was “soluble”.

For “MAHHHHHHMEAGARFPAAATPPASAGAAAVQGDAESEPDDERWSLSDGEPEAIPAKNGEPSDADVDAAMAAKGEAAELHGEGKQEEAIAKMGEALAYNPGNAMYWGMRALYHLEFNKPRAALHDANKALELNPQNVRALRVRGTVNRHLGHWEDSLKDLSAAQAIDYDDKTNETLKYVQSRATQRHKRQLARHHAEEEAAARRQEELRRQRQREAEEAAAAAEAQAAPGSMPGGLPRGFPGGMPGGMPGGMPGGMPPGMESVLQDPEIMVAMQDPEVAPKLAQMMQNPMAAMSMMNDPKVGPVMQKIMAKMMGGGGMPGGMGGMGGMGGFQGAGGMPSHRGAADGASGSTRRDDLD”, the “soluble on expression in E. coli” value was “not soluble”.

In the case of “MMAVENAVDYPISVRLPSYVVEKIDELVKKRKFRSRSDFIKFAVTFALGQIMMEEARERAKNEPEELEKERKEAWMRLRAGDFSKEDEETLELLKKVDARYKRLGGRS”, the “soluble on expression in E. coli” value was “soluble”.

With “MPNIDNVFSIYAGQLELLRQNGLIERTGEYICPICLNSFNKEQLNKLSMEDAPQASLGGKKIAITCKKCNNTCGHETDIHLVNFITYLEEQEFLPGSNRRVKIFDDETTINANLEVGNTKELKMIIPNKINNPKALTNHLSKLTVGGIIDIQNHPLKIDMKKVSTAILKNAYIILFARFGYSFLLNSFYDRIREQILNPAKHIIPESLWTKQTSISVKDGIYFSNSNVYRGFFIIYSLTKLRTHHFCICIPTPQVYFEAIAYYFREYKAGIPIYMMGSDGIDYFQNIDNIKALNKWLVNWSLGSPV” the “soluble on expression in E. coli” value was “not soluble”.

In the case of “MGSDKIHHHHHHALGGCGLVPKQPITQQPMTALPPMPPQAQSPGSIFNPGYAGRPLFEDQRPRNVGDILTIVIQENVNATKSSGANANRSGNTNFNVPTAGFLGGLFGKTNLSATGANVFSGTGGANASNTFNGTITVTVTGVLPNGNLMVSGEKQMLINQGDEFVRFSGVVNPNTISNLNAVYSTQVADAKIEYSAKGYLNEAENMGWLQRFFLNVSPW”, the “soluble on expression in E. coli” value was “not soluble”.

In the case of “MGGSHHHHHHGMASALGADGFVPLGTLLQLPQFRGFSAEDVQRVVDTNRKQRFALQLGDPSTGLLIRANQGHSLQVPKLELMPLETPQALPPMLVHGTFWKHWPSILLKGLSCQGRTHIHLAPGLPGDPGIISGMRSHCEIAVFIDGPLALADGIPFFRSANGVILTPGNTDGFLLPKYFKEALQLRPTRKPLSLAGDEETECQSSPKHSSRERRRIQQ”, the “soluble on expression in E. coli” value was “not soluble”.

In the case of “MGSDKIHHHHHHMSTSSGERVTVGTATASPGEAVRGAIPAGDLAGGVKVEIPVVVINGGGAGPTFWVNAAIHGDEPEGPLACALAVKQIDPAKLRGTVVMVPCVNPLAFSAAERGNPLDTFTYDMNRIYPGKPDGYFSDRVADAHWQAMKDVADLEISIHSGGAHSFLDKAIFVDERPESVELAKAMGEGWGCIMSNFTKAGSPMAAMNNAGKVDITVELGGRSYTSPDRFRYVGEELAKSILNICYHYDMLDGQATYPTDATIGQQEALLAPASGIFLPEPGVDFLTMMDNGTKIARIINIFGDEVGALHAPARGMFFGLRALPNVNQGDWCCFFNKVEGPRD”, the “soluble on expression in E. coli” value was “not soluble”.

With “MAPSAAVGNYGEVIDYLQRHIRREMERQDVPGLALALVDDQQLVWARGFGYADRQHRINASEHTAFHAGDLSKLLIASATLQLAERGQLSLDAPLQDTLREFYVRSRFHADQSEADRAITFRRLLSHQSGLPGEHLPPLFGERPNSLGQLPAKVSGVWLSNPPGTQVAHSNLGYELVGAAIERNTGKHFEQHMREHLLDPLQMTRSSFARNALPQAQRAHGYSGGGRPGSASDLPVNDLWSSPVDLSRFVRMLFANGRHKERQLLRKHSVEEMFRQQNAGNALDFDCQVGLAWFLSPCGSAPLEGGIRHYEYASATPGFSAHLILLPEQRLAAIVMSNADDSGSLTASLARQAASLMLQVKQGARRPAVQLEHHHHHH” the “soluble on expression in E. coli” value was “not soluble”.

For “MSRNLHHTEEIYQSSYLNSSLIEFMPNTILPGKETVFMSSKMEQIIEEIEDYIDGCKPSPISRNKILVNREQLEELLSELRTKTPEEVKRYQKIISNKEAILADAQAKADQIIAQAQIQTNELVSEHQIMQQAYAQANEVVQIATKQAQEILDSATNEANNLRMSAMAYTDSQLKSIEDILTGSIETSKARYDSLISSLQQFEDVVAANRAELFPPEENGDEAAGAESSDNEATSDTSDDDIEITNISDSDEDAK”, the “soluble on expression in E. coli” value was “not soluble”.

In the case of “SNAEMSYELAQHGRSTLPRELAVYALEGPFFFAAAETFERVMGSIQETPQILILRLKWVPFMDITGIQTLEEMIQSFHKRGIKVLISGANSRVSQKLVKAGIVKLVGEQNVYPVFEGALSAALTEIEAQP”, the “soluble on expression in E. coli” value was “soluble”.

For “IQEHAIDLSQKSALVIDEELYLPELSLDTLKGLETLAPFGMNNKKPIFLLRDFTVKQVRTMGQNGAHLKLKVAQEQAVFDLLAFNYGSLVTEFQQAQHLELAVTLSVNRWNGNTSLQ”, the “soluble on expression in E. coli” value was “not soluble”.

In the case of “GPTSPGPALTDWARVREELASTGPPVVAMPVVIKTEGPAWTPLEPKLITRLADTVRTKGLRSPITMAEVEALMSSPLLPHDVTNLMRVILGPAPYALWMDAWGVQLQTVIAAATRDPRHPANGQGRGERTNLNRLKGLADGMVGNPQGQAALLRPGELVAITASALQAFREVARLA”, the “soluble on expression in E. coli” value was “soluble”.

In the case of “MGHHHHHHSHMRKNESYLNQPAPPIPIPTLSLMGGCREHFENHWKGRARWLMPVIPALWEAKAGRSPEVRSSKPAWPTWRNPIFTKNTKISQVLELFLNYQSLICALEKQKRQKGSLAIFCWSFQGGCVSKRPDVPSLKSQKPKRKRITGRKRLSKGSWSLLFSNLGRF”, the “soluble on expression in E. coli” value was “soluble”.

In the case of “MELKKRSEFPENELWDLTALYKDRQDFLLAIEKALQDIDLFKRNYEGRLTSVDDFTQALIEIEHIYIQMSHIGTYAFMPQTTDFSDESFAQIAQAGDDFMTKASVALSFFDTALANADLDVLDTLEKNPYFSAAIRMAKIQKEHLLSPDVEKALANLREVINAPYDIYTKMRAGDFDMDDFEVDGKTYKNSFVSYENFYQNHENAEIREKAFRSFSKGLRKHQNTAAAAYLAKVKSEKLLADMKGYASVFDYLLAEQEVDRSLFDRQIDLIMTEFGPVAQKFLKHVAQVNGLEKMTFADWKLDIDNDLNPEVSIDGAYDLVMKSLAPLGQEYTKEIERYQTERWVDFAANANKDSGGYAADPYKVHPYVLMSWTGRMSDVYTLIHEIGHSGQFIFSDNHQSYFNTHMSTYYVEAPSTFNELMLSDYLEHQFDDPRQKRFALAHRLTDTYFHNFITHLLEAAFQRKVYTLIEEGGTFGADQLNAMMKEVLTDFWGDAVDIDDDAALTWMRQAHYYMGLYSYTYSAGLVISTAGYLNLKHNPNGAKEWLDFLKSGGSRTPLDTAMLIGADIATEKPLRDTIQFLSDTVDQIISYTEDMSHA”, the “soluble on expression in E. coli” value was “soluble”.

For “SFVKDFKPQALGDTNLFKPIKIGNNELLHRAVIPPLTRMRALHPGNIPNRDWAVEYYTQRAQRPGTMIITEGAFISPQAGGYDNAPGVWSEEQMVEWTKIFNAIHEKKSFVWVQLWVLGWAAFPDNLARDGLRYDSASDNVFMDAEQEAKAKKANNPQHSLTKDEIKQYIKEYVQAAKNSIAAGADGVEINSANGYLLNQFLDPHSNTRTDEYGGSIENRARFTLEVVDALVEAIGHEKVGLRLSPYGVFNSMSGGAETGIVAQYAYVAGELEKRAKAGKRLAFVHLVEPRVTNPFLTEGEGEYEGGSNDFVYSIWKGPVIRAGNFALHPEVVREEVKDKRTLIGYGRFFISNPDLVDRLEKGLPLNKYDRDTFYQMSAHGYIDYPTYEEALKLGWDKS”, the “soluble on expression in E. coli” value was “soluble”.

In the case of “LAELFEKAAAHLQGLIQVASREQLLYLYARYKQVKVGNCNTPKPSFFDFEGKQKWEAWKALGDSSPSQAMQEYIAVVKKLDPGWNPQIPEKKGKEA”, the “soluble on expression in E. coli” value was “soluble”.

With “MSLKLLAIDSATQAATCAVMDDDKLLGEITFNYKKQHSVILMSMIDDMLNTVNLKVEDLDGFVVSKGPGSFTGLRIGMSIVKGLSEGSKKPFVSVSSLDALAYNMAYTPGIICPVLDALRDNVYTALYTFEGNSLKRLTEYDAIHITELIELLKGYDSQVTFIGDAVYKFRNFFDENVENVQFAPAHLNLVRSSSLCELGMELLKSGVKDDLITSAPIYIRKSQAEREYEKRTGMSIDDEGHHHHHH” the “soluble on expression in E. coli” value was “soluble”.
